Substitutions are numbered along the chain they refer to.
Experiments:
mouse CD20 [1] = target: T1, mouse CD20 (mouse, UniProt P19437 1-291); assay: flow cytometry on HEK293/mCD20 cells
T1 construct: whole, on cells; also called mCD20; murine CD20
T1 sequence (looked up): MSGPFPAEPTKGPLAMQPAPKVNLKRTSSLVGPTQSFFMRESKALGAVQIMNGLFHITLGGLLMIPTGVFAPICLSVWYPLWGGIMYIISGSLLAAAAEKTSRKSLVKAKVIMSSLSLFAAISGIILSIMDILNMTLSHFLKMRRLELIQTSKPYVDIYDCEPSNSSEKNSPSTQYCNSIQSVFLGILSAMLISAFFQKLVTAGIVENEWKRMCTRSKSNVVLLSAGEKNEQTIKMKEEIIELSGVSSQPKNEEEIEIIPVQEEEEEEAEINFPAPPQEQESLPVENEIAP
Method: (§1) Cells (HEK 293, MC38 over-expressing mCD20 or Jurkat over-expressing mPD1) were resuspended in FACS wash (PBS with 1% FBS) at 1×10⁶ cells/mL. The staining was performed in 1×10⁵ cells per well. The antibodies were diluted with a ratio of 1:5 from a starting concentration of 1.3×10⁻⁰⁷ M. The diluted antibodies were then added into the wells containing cells. Cells were stained for 30 min at 2-8° C. and washed twice with FACS wash buffer. APC-conjugated goat anti-human IgG (Jackson Immuno Research, 109-607-003, 1:400) was added to stain the cells for 30 min at 2-8° C. Following washing, cells were fixed in 2% paraformaldehyde for 30 min at 2-8° C. After two washes, stained cells were analyzed using BD LSRFortessa™ FACS instrument. The results were analyzed by FlowJo. FSC/SSC gates were used to select mononuclear cells.

mouse PD1 [2] = target: T2, mouse PD1 (mouse, UniProt Q02242 25-288); assay: flow cytometry on Jurkat/mPD1 cells
T2 sequence (looked up): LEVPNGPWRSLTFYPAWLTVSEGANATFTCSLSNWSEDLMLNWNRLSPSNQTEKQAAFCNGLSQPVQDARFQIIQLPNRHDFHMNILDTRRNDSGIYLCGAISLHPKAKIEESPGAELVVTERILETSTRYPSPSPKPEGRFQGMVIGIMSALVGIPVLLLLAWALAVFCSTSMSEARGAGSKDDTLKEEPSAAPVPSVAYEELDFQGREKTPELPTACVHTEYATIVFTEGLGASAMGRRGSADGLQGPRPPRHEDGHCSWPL
Method: as §1

mouse PD1 [3] = target: T2, mouse PD1; assay: cell-based or functional assay
mouse CD20 [4] = target: T1, mouse CD20; assay: flow cytometry on MC38/mCD20 cells
Method: as §1

**Q.** How did the Max MFI (mouse CD20 [1]) turn out when REGN1932 (hIgG1 control) (antibody) was run?
**A.** Its Max MFI is 14.3 MFI.

**Q.** What about the Max MFI (mouse PD1 [2]) of the same molecule?
**A.** The Max MFI was 90.4 MFI.

**Q.** And the Max % inhibition, luciferase bioassay, 2.5 nM CD3 bsAb (mouse PD1 [3])?
**A.** The Max % inhibition, luciferase bioassay, 2.5 nM CD3 bsAb was 3%.

**Q.** What about the Max MFI (mouse CD20 [4]) of the same molecule?
**A.** Its Max MFI is 140 MFI.

**Q.** “Single arm mPDL1 WT-Fc (from UniProt Q9EP73 19-239) (Fc fusion)” was tested. Which Max MFI (mouse CD20 [4]) did it give?
**A.** Its Max MFI is 94.9 MFI.

B1: 18B12-scFvFc (scFv, V domains shown)
VH: QVQLQQPGAELVRPGTSVKLSCKASGYTFTSYWMHWIKQRPGQGLEWIGVIDPSDNYTKYNQKFKGKATLTVDTSSSTAYMQLSSLTSEDSAVYFCAREGYYGSSPWFAYWGQGTLVTVSS
VL: QIVMSQSPAILSASPGEKVTMTCRARSSVSYIHWYQQKPGSSPKPWIYATSNLASGVPGRFSGSGSGTSYSLTITRVEAEDAATYYCQQWSSKPPTFGGGTKLEIK
**Q.** B1 was tested. Which “Max MFI” value (mouse PD1 [2]) did it give?
**A.** Its value is 198 MFI.

**Q.** Does B1 bind (mouse PD1 [2])?
**A.** Result: no binding (tested: starting concentration of 1.3×10^-07 M)

**Q.** And the EC50 (mouse CD20 [4])?
**A.** The EC50 was 18 nM.

**Q.** And the “Max MFI” value (mouse CD20 [4])?
**A.** Its value is 48300 MFI.

B2: 1B12IgG1EN (antibody)
heavy 1: QVQLQQPGAELVRPGTSVKLSCKASGYTFTSYWMHWIKQRPGQGLEWIGVIDPSDNYTKYNQKFKGKATLTVDTSSSTAYMQLSSLTSEDSAVYFCAREGYYGSSPWFAYWGQGTLVTVSSASTKGPSVFPLAPSSKSTSGGTAALGCLVKDYFPEPVTVSWNSGALTSGVHTFPAVLQSSGLYSLSSVVTVPSSSLGTQTYICNVNHKPSNTKVDKKVEPKSCDKTHTCPPCPAPEAEGAPSVFLFPPKPKDTLMISRTPEVTCVVVDVSHEDPEVKFNWYVDGVEVHNAKTKPREEQYNSTYRVVSVLTVLHQDWLNGKEYKCKVSNKALPSSIEKTISKAKGQPREPQVYTLPPCRDELTKNQVSLWCLVKGFYPSDIAVEWESNGQPENNYKTTPPVLDSDGSFFLYSKLTVDKSRWQQGNVFSCSVMHEALHNHYTQKSLSLSPGK
heavy 2: B2 heavy 1 with Y353C, C358S, W370S, L372A, Y411V, H439R, Y440F
light: QIVMSQSPAILSASPGEKVTMTCRARSSVSYIHWYQQKPGSSPKPWIYATSNLASGVPGRFSGSGSGTSYSLTITRVEAEDAATYYCQQWSSKPPTFGGGTKLEIKRTVAAPSVFIFPPSDEQLKSGTASVVCLLNNFYPREAKVQWKVDNALQSGNSQESVTEQDSKDSTYSLSSTLTLSKADYEKHKVYACEVTHQGLSSPVTKSFNRGEC
notes: Control, bivalent anti-mCD20 IgG with knob and hole-star heavy chains; also called 1B12lgG1EN
**Q.** For B2, which EC50 (mouse CD20 [1]) is on record?
**A.** Its EC50 is 13.5 nM.

**Q.** And the “Max MFI” value (mouse CD20 [1])?
**A.** Its value is 28200 MFI.

**Q.** What about the “Max MFI” value (mouse PD1 [2]) of the same molecule?
**A.** The value was 118 MFI.

**Q.** Does B2 bind (mouse PD1 [2])?
**A.** Result: no binding (tested: starting concentration of 1.3×10^-07 M)

**Q.** And the “Max % inhibition, luciferase bioassay, 1nM CD3 bsAb” value (mouse PD1 [3])?
**A.** The value was 19%.

**Q.** And the “Max % inhibition, luciferase bioassay, 2.5 nM CD3 bsAb” value (mouse PD1 [3])?
**A.** The value was 0%.

**Q.** And the EC50 (mouse CD20 [4])?
**A.** Its EC50 is 1.71 nM.

**Q.** What about the “Max MFI” value (mouse CD20 [4]) of the same molecule?
**A.** The value was 42000 MFI.

— patent US20230279153A1 (Regeneron, published 2023)
